Consider 32 variants from the RNAGym collection of RNA variant scans (doi:10.7554/elife.80360).

To fix the notation:
B1: HDV Ribozyme (parent)
chain: GGCCGGCAUGGUCCCAGCCUCCUCGCUGGCGCCGGCUGGGCAACAUUCCGAGGGGACCGUCCCCUCGGUAAUGGCGAAUGGGACCCA

Variants of B1 are the subject of this data set. Briefly: self-cleavage, relative activity (ratio to wild type); higher = more cleavage; co-transcriptional.
GGCCGGCAUGGUCCCAGCCUCCUCACUGGCGCCGGCUGGGCAACAUUCCGAGGGGACCGUCCCCUCGCUAAUGGCGAAUGGGACCCA [G25A G68C]: the self-cleavage stood at 0.253.
In the case of GGCCGGCAUGGUCCCAGCCUCCUCGCUGGCGCCGGCUGGGCAACAUUCCGAGAGGACCGUCCCCUCGGUAAUGGCGAAUGGGACCCU [G53A A87U] it was 0.992; in that of GGCCGGCAUGGUCCCAGCCUCCUCGCUGGCACCGGCUGGGCAACAUUCCGAGGGGACCGUCCCCUCGGUAAUGGCGCAUGGGACCCA [G31A A77C], 0.199; in that of GGCCGGCAUGGUCCCAGCCUCCUCGCUGGCGCCGGCUGGGCAACAUUCCGAGGGGACCGCUCCCUCGGUAAUGGCGAAUGGGACCCA [U60C C61U], 0.718.
In the case of AGCCGGCAUGGUCCCAGCCUCCUCGCUGGCGCCGGCUGGGCAACAUUCCGAGGGGACCGUCCCCUCGGUAAUGGCGAAUGGUACCCA [G1A G82U] it was 0.095.
In the case of GGCCGGCAUGGUCCCACCCUCCUCGCUGGCGCCGGCUGGGCAACAUUCCGAGGGGACCGUCCCCUCGGUAAUGGCGAAUGGGACCCC [G17C A87C] it was 0.354; in that of GGCCAGCAUGGUCCCAGCCUCCUCGCUGGCGCCGUCUGGGCAACAUUCCGAGGGGACCGUCCCCUCGGUAAUGGCGAAUGGGACCCA [G5A G35U], 0.0396; in that of GGCCGGCAUGGUCCCAGCCUUCUAGCUGGCGCCGGCUGGGCAACAUUCCGAGGGGACCGUCCCCUCGGUAAUGGCGAAUGGGACCCA [C21U C24A], 0.0997.
Turning to GGCCGGCAUGGUCCCAGCCACCUCGCUGGCGCCGGCUGGGCAUCAUUCCGAGGGGACCGUCCCCUCGGUAAUGGCGAAUGGGACCCA [U20A A43U], the self-cleavage came out at 0.0386.
As for GGCCGGCAUUGUCCCAGCCUCUUCGCUGGCGCCGGCUGGGCAACAUUCCGAGGGGACCGUCCCCUCGGUAAUGGCGAAUGGGACCCA [G10U C22U], the self-cleavage worked out at 0.188.
In the case of GGCCGGCAUGGUCCCAGCCUCCUCGCUGGCGUCGGCUGGGCAACAUUCCGAGGGGACCGUCCCCUCGGUAAUGGCGAAUGGGACCCC [C32U A87C] it was 0.795.
In the case of GGCCGGCAUGGUCCCAGCUUCCUCGCUGGCGCCGGCUGGGCAACACUCCGAGGGGACCGUCCCCUCGGUAAUGGCGAAUGGGACCCA [C19U U46C] it was 0.213.
In the case of GGCCGGCAUGGUCACAGCCUCCUCGCUGGCGCCCGCUGGGCAACAUUCCGAGGGGACCGUCCCCUCGGUAAUGGCGAAUGGGACCCA [C14A G34C] it was 0.151; in that of GGCCGGCAUGGUCCCAGUCUCCUCGCUGGCGCCGGCUGGGCAACAUUCCUAGGGGACCGUCCCCUCGGUAAUGGCGAAUGGGACCCA [C18U G50U], 0.639.
As for GGCCGGCAUGGUCCCAGCCUCCUCGCUGGCGCCGGCUGGGCAACAUUCCGAGGGGAACGUCCCCUCGGUAAUGGGGAAUGGGACCCA [C57A C75G], the self-cleavage stood at 0.0978.
For the variant GGCCGGCAUGGUCCCAGCCUCUUCGCUCGCGCCGGCUGGGCAACAUUCCGAGGGGACCGUCCCCUCGGUAAUGGCGAAUGGGACCCA [C22U G28C], the self-cleavage was 0.
In the case of GGCCGGCAUGGUCCCAGCCUCCUCGCUGGCGCCGGCUGGGCAACAUUCCGAGGGGACCGUGCCCUCGGUAAUGGCGAAUGGGACCUA [C61G C86U] it was 0.772; in that of GGCCCGCAUGGUCCCAGCCUCCUCGCUGGCGCCGGCUGGGCAACAUUCCGAGGGGACCGUGCCCUCGGUAAUGGCGAAUGGGACCCA [G5C C61G], 0.287; in that of GGCCGGCAUGGUCCCAGCCCCCUCGCUGGCGCCGGCUGGGCAACAUUCCGAGGGGACCGUCCCCUCGGUAAUGUCGAAUGGGACCCA [U20C G74U], 0.104.
In the case of UGCCGGCAUGGUCCCAGCCUCCUCGCUGGCGCCGGCUGGGCAACAUUCCGAGGGGACCGUCCCCUCGGUAAGGGCGAAUGGGACCCA [G1U U72G] it was 0.269.
In the case of GGCCGGCAUGGUCCCAGCCUCCUCGCUGGCGCCUGCUGGGCAACAUUCCGAGGGGACCGUCCCCUCGGUAAUGGCGACUGGGACCCA [G34U A78C] it was 0.0369.
Take GGCCGGCAUGGUCGCAGCCUCCUCGCUGGCGCCGGCUGGGCAACAUUCCGAGGGGACCGUCCCCUCGGUAAUGUCGAAUGGGACCCA [C14G G74U]: the self-cleavage worked out at 0.128.
In the case of GGCCGGCAUGGUCCCAGCCUCCUCGCUGGCGCGGGUUGGGCAACAUUCCGAGGGGACCGUCCCCUCGGUAAUGGCGAAUGGGACCCA [C33G C36U] it was 0.0997; in that of GGCCGGCAUGGUCCCAGCCUCCUCGCUGGCGCCGGCUGGGCAACAAUCCGAGGAGACCGUCCCCUCGGUAAUGGCGAAUGGGACCCA [U46A G54A], 0.763.
GGCCGGCAUGGUCCCAGCCUCCUCGCUGGCGCCGGCUGGGCAACAUUCCGAGGGGACCGUCUCCUCGGUAACGGCGAAUGGGACCCA [C62U U72C]: the self-cleavage is 0.636.
GGCCGGCAUGGUCCCAGCCUCCUCGCAGGCGCCGGCUGGGCAACAUUCCGAGGGGACCGUCCCCUCGCUAAUGGCGAAUGGGACCCA [U27A G68C]: the self-cleavage came out at 0.688.
In the case of GGCCGGCAUGGUCCCAGCCUCCUCGCUGGCGCCGGCAGGGCAACAUUCCGAGGGGACCGUCCCAUCGGUAAUGGCGAAUGGGACCCA [U37A C64A] it was 0.0723.
In the case of GGCCGGCAUGGUCCCAGCCUCCUCGCUGGCGCCGGCUGGGCAACAUUCCGAGGGGACCGUCACAUCGGUAAUGGCGAAUGGGACCCA [C62A C64A] it was 0.332; in that of GCCCGGCAUGGUCCCAGCCUUCUCGCUGGCGCCGGCUGGGCAACAUUCCGAGGGGACCGUCCCCUCGGUAAUGGCGAAUGGGACCCA [G2C C21U], 0.0615; in that of GGCCGGCAUGGUCCCAGCCUCCUCGCUGGCGCCGGCUGGGCAACAUUCCGAGGGGGCGGUCCCCUCGGUAAUGGCGAAUGGGACCCA [A56G C58G], 0.911.
In the case of GGCUGCCAUGGUCCCAGCCUCCUCGCUGGCGCCGGCUGGGCAACAUUCCGAGGGGACCGUCCCCUCGGUAAUGGCGAAUGGGACCCA [C4U G6C] it was 0; in that of GGCCGGCAUGGUCCCAGCCUCCUAGCUGGCGCCGGCUGGGCAACACUCCGAGGGGACCGUCCCCUCGGUAAUGGCGAAUGGGACCCA [C24A U46C], 0.269.
